{
  "source": "paper PMC3002026",
  "about": "(The Journal of Cell Biology, 2010)",
  "target": "the molecule itself",
  "test": "AUC",
  "data": [
    {"protein": "Mdv1 CC^231–299 (domain or fragment, yeast) GPQTLVNSLEFLNIQKNSTLSEIRDIEVEVENLRQKKEKLLGKIANIEQNQLLLEDNLKQIDDRLDFLEEY", "values": [
      {"measurement": "stoichiometry N", "value": 1.95}
    ]}
  ]
}
